Experimental data taken from PMC7252695.

What was measured:
[1] = target: T1, GST-TEK (Arabidopsis thaliana) (UniProt Q9SJG4); experiment: EMSA; details: EMSA according to manufacturer's instructions (Thermo Scientific); buffer, salt, pH and temperature not stated
T1 sequence: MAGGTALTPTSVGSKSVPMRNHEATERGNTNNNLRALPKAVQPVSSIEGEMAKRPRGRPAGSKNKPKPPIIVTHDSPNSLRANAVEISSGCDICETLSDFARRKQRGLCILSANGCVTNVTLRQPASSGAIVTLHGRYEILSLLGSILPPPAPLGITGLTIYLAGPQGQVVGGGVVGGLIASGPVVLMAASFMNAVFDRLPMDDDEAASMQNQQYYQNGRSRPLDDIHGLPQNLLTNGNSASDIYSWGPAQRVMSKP

[2] = target: T1, GST-TEK (Arabidopsis thaliana); experiment: competition; details: EMSA according to manufacturer's instructions (Thermo Scientific); buffer, salt, pH and temperature not stated

| Sequence | binding [1] | binding [2] |
| --- | --- | --- |
| GCCCATATATAGTATCTTCCGCTGTTGTATATCTTGAGCAGCTTGAGGAAGCCTTTGCAAAAAAATAGAGTGAATTTTGAGTACAGTATGAATATCATTCAACAACATTTTCCATCCAAGCGACTTAGAAAATAAAATTTTGTCAGCTACCTTAAACTGTGTTTACGTCCTAAAAATTTGCACCAA (double strand) [CalS5 P11 fragment] | binds | – |
| GCCCATATATAGTATCTTCCGCTGTTGTATATCTTGAGCAGCTTGAGGAAGCCTTTGCAAAAAAATAGAGTGAATTTTGAGTACAGTATGAATATCATTCAACAACATTTTCCATCCAAGCGACTTAGAAAATAAAATTTTGTCAGCTACCTTAAACTGTGTTTACGTCCTAAAAATTTGCACCAA (double strand) [CalS5 P11 unlabeled competitor] | – | binds |
